Legend:
B16F10 melanoma cells = assay: In vivo cancer growth inhibition, B16F10 melanoma model; parameters: species or system C57BL/6 mice; conditions: CL7 25 mg/kg, α-PD-1 10 mg/kg, α-CTLA4 4 mg/kg i.p. twice a week, 4 times; 20 days
Description: In order to identify whether the anti-CD300c monoclonal antibody CL7 is effective in other carcinomas in addition to a CT26 colon cancer mouse model, an additional experiment was conducted with melanoma mouse models. B16F10 melanoma cells at 7×10^5 cells were transplanted by subcutaneous injection into 8-week-old male C57BL/6 mice to prepare syngeneic mouse tumor models. Animal breeding and experiments were all conducted in a SPF facility. On day 8 after transplantation of the melanoma cell line, the mice with a tumor size of 50 mm^3 to 100 mm^3 were intraperitoneally injected with 25 mg/kg of CL7, 10 mg/kg of α-PD-1, and 4 mg/kg of α-CTLA4. More specifically, the mice were injected, twice a week for 2 weeks (over a total of 4 times), with each of the anti-CD300c monoclonal antibody, the anti-PD-1 antibody, the anti-CD300c monoclonal antibody+the anti-PD-1 antibody (Combo), and the anti-CD300c monoclonal antibody+the anti-PD-1 antibody+the anti-CTLA-4 antibody (Triple), and for a control group, the mice were injected with the same amount of phosphate buffered saline (PBS). The cancer size was measured for 20 days.

THP-1 = assay: M1 macrophage marker ELISA in THP-1; format: cell-based, human; conditions: THP-1, 10 μg/mL, 48 hours, antibody alone
Description: In order to identify whether the induction of differentiation of monocytes into M1 macrophages increases when the cells are treated with the anti-CD300c monoclonal antibody CL7 produced in Example 1 and an immunotherapeutic agent, such as Imfinzi as an anti-PD-L1 antibody, Opdivo as an anti-PD-1 antibody, KEYTRUDA as an anti-PD-1 antibody, an anti-CD47 antibody (αCD47), and an anti-CTLA-4 antibody, alone in combination, THP-1 was dispensed into a 96-well plate at 1.5×10^4 cells/well and treated with the anti-CD300c monoclonal antibody and the immunotherapeutic agent, respectively, at 10 μg/mL alone or in combination, followed by incubation for 48 hours, and the production levels of tumor necrosis factor-α (TNF-α), IL-1b, and IL-8, which are differentiation markers of M1 macrophages, were measured using an ELISA kit (Human TNF-α Quantikine kit, R&D Systems).

[1] = system: A549 (human lung cancer cell line); assay: A549 cancer cell growth inhibition (CCK-8), CL7 and Imfinzi; format: cell-based; conditions: A549, 0% FBS, 10 μg/mL each, 5 days
Description: In order to identify cancer cell growth inhibitory effects by combined administration of the anti-CD300c monoclonal antibody CL7 and an immunotherapeutic agent, the cancer cell growth inhibitory effects were compared using A549 (human lung cancer cell line) and MDA-MB-231 (human breast cancer cell line). Specifically, the cells were dispensed into a 96-well plate at 2×10^4 cells (A549) or 3×10^4 cells (MDA-MB-231) under 0% fetal bovine serum (FBS) conditions, and at 6×10^3 cells (A549) or 1×10^4 cells (MDA-MB-231) under 0.1% fetal bovine serum conditions. Subsequently, the cells were treated with the anti-CD300c monoclonal antibody and Imfinzi at 10 μg/mL alone or in combination, followed by incubation for 5 days. For a control group, the cells were treated with the same amount of phosphate buffer solution (PBS). Then, the cells were treated with CCK-8 (DOJINDO), and the absorbance was measured at OD 450 nm. The results are shown in FIG. 33 (A549) and FIG. 34 (MDA-MB-231).

[2] = system: colon cancer cell line (CT26) tumor; assay: Tumor-infiltrating lymphocytes and macrophages in CT26 cancer tissue after combined use; format: in vivo, BALB/c mice
Description: In order to identify effects of the anti-CD300c monoclonal antibody on tumor-infiltrating lymphocytes (TIL) in a tumor microenvironment (TME), on day 25 of an experiment conducted by the same method as in Experimental Example 7.1, the mice were euthanized, and injected intravascularly with 1% paraformaldehyde (PFA) to perform perfusion, and then the cancer tissue was obtained. The obtained cancer tissue was fixed using 1% PFA, and sequentially dehydrated using 10%, 20%, and 30% sucrose solutions. The dehydrated cancer tissue was frozen in OCT compound (optimal cutting temperature compound), and then the cancer tissue was sectioned to a thickness of 50 μm using a cryotome. The tissue was incubated at 37° C. for 1 hour in a mixed solution of collagenase D (20 mg/mL) and DNase I (2 mg/mL). Thereafter, the resultant product was filtered through a 70 μm cell strainer, followed by the lysis of red blood cells, and then again filtered through a nylon mesh for making single cells. To suppress non-specific reactions in the single cell suspension, the cells were incubated with a CD16/32 antibody (Invitrogen) for 1 hour, and then cell viability was identified, and CD8+ T cells and CD31+ cancer blood vessel cells, which are tumor-infiltrating lymphocyte markers, were stained.
In order to identify whether the anti-CD300c monoclonal antibody increases M1 macrophages in the cancer tissue of mouse models, the cancer tissue sections prepared by the same method as in Experimental Example 7.2 were stained with antibodies to the M1 macrophage marker iNOS and the M2 macrophage marker CD206, and analyzed by FACS.
In order to identify whether the anti-CD300c monoclonal antibody CL7 promotes CD8+ T cell immunity in mouse tumor models, on day 25 of the experiment conducted by the same method as in Experimental Example 7.1, the mice were euthanized, and injected intravascularly with 1% paraformaldehyde (PFA) to perform perfusion, and then the cancer tissue was obtained. The obtained cancer tissue was fixed using 1% PFA, and sequentially dehydrated using 10%, 20%, and 30% sucrose solutions. […]

[3] = system: colon cancer cell line (CT26) tumor; assay: Tumor volume, complete remission and long-term survival, CT26 model, combined administration; format: in vivo, BALB/c mice; conditions: CL7 25 mg/kg, anti-PD-1 10 mg/kg, anti-CTLA-4 4 mg/kg i.p. D11, D14, D18
[4] = CT26 cancer tissue, day 25, FACS

B1: CL7: anti-CD300c monoclonal antibody, VH3VL1 phage library, VH SEQ ID 327, VL SEQ ID 328 (antibody, V domains shown)
VH: EVQLLESGGGLVQPGGSLRLSCAASGFTFSRYAMSWVRQAPGKGLEWVSAISGSGGSTYYADSVKGRFTISRDNSKNTLYLQMNSLRAEDTAVYYCARSSQGIFDIWGQGTLVTVSS
VL: QSVLTQPPSASGTPGQRVTISCSGNNIGTRRVHWYQQLPDTAPKLLIYSKNNRPSGVPDRFSGSKSGTSASLAISGLRSEDEADYYCAAWDDSLSGPVFGGGTKLTVL
modifications: CL7 Heavy Chain Variable Region; CL7 Light Chain Variable Region
For B1, the “cancer growth (cancer size)” value (B16F10 melanoma cells) was “inhibited”, the “production level of IL-8” value (THP-1) was “significantly increased” and the “production levels of all three differentiation markers (TNF-α, IL-1b, IL-8)” value (THP-1) was “increased”. The “cell growth inhibitory effect compared with control group” value [1] was 17%, the “M1 macrophages (iNOS) in cancer tissue” value [2, 4] was “remarkably increased” and the “M2 macrophages (CD206) in cancer tissue” value [2, 4] was “hardly observed”. For the same molecule, the “CD8+ T cells in cancer tissue” value ([2]; Experimental Example 7.4, CT26 cancer tissue sections, day 25) was “remarkably increased” and the “growth of cancer (tumor volume)” value [3] was “inhibited”.

From patent publication US20240254220A1, “COMBINED THERAPY USING ANTI-CD300C ANTIBODY” (CentricsBio, Inc., priority 2021, published 2024)
